Target: ELIC-α1GABAAR chimera (Erwinia chrysanthemi | human) (UniProt P0C7B7)
Test: crystal structure

ELIC-α1GABAAR chimera (from UniProt P0C7B7 1-199) (receptor)
stoichiometry N: 5
